Where a chain is given by its changes, count along the chain named.
B1: ISOP193AR9P1A11 (designed binder, not shown: small tags and cut ends)
chain: LPAPKNLVVSRVTEDSARLSWALSSVHAYFDSFLIQYQESEKVGEAIVLTVPGSERSYDLTGLKPGTEYTVSIYGVQYVDGFFKSNPLSAIFTT
B2: ISOP193AR9P1A6 (designed binder, not shown: small tags and cut ends)
chain: LPAPKNLVVSRVTEDSARLSWKFGEVAFDSFLIQYQESEKVGEAIVLTVPGSERSYDLTGLKPGTEYTVSIYGVGRHYTVYDSNPLSAIFTT
B3: ISOP193AR9P1C10 (designed binder, not shown: small tags and cut ends)
chain: B2 chain with K22P, F23N, G24H, E25I, V26S, A27I, H77F, Y81F
B4: ISOP193AR9P1E6 (designed binder, not shown: small tags and cut ends)
chain: B2 chain with G24H, E25S, V26P, A27T, F90V
B5: ISOP193AR9P1B12 (designed binder, not shown: small tags and cut ends)
chain: LPAPKNLVVSRVTEDSARLSWTNEQITKYGFDSFLIQYQESEKVGEAIVLTVPGSERSYDLTGLKPGTEYTVSIYGVGAPYTVYDSNPLSAIFTT
B6: ISOP193AR9P1H8 (designed binder, not shown: small tags and cut ends)
chain: B5 chain with A79R, P80F, Y84F
B7: ISOP193AR9P1G8 (designed binder, not shown: small tags and cut ends)
chain: LPAPKNLVVSRVTEDSARLSWHATFGDPFDSFLIQYQESEKVGEAIVLTVPGSERSYDLTGLKPGTEYTVSIYGVGRHYTVYDSNPLSAIFTT
B8: ISOP193AR9P1F4 (designed binder, not shown: small tags and cut ends)
chain: LPAPKNLVVSRVTEDSARLSWLEQEQFVNHFDSFLIQYQESEKVGEAIVLTVPGSERSYDLTGLKPGTEYTVSIYGVQYVDGFFKSNPLSAIFTT
B9: ISOP193AR9P1G5 (designed binder, not shown: small tags and cut ends)
chain: LPAPKNLVVSRVTEDSARLSWRISDRLPLFDSFLIQYQESEKVGEAIVLTVPGSERSYDLTGLKPGTEYTVSIYGVGRHYTVYDSNPLSAIFTT
B10: ISOP193BR9P1B12 (designed binder, not shown: small tags and cut ends)
chain: LPAPKNLVVSRVTEDSARLSWPDESRPVRFDSFLIQYQESEKVGEAIVLTVPGSERSYDLTGLKPGTEYTVSIYGVLRPWIYATNDSNPLSAIFTT
B11: ISOP193BR9P1H2 (designed binder, not shown: small tags and cut ends)
chain: B10 chain with L77H, R78T, P79R, W80D, I81W, Y82T, T84W, D86A
B12: ISOP193BR9P1H6 (designed binder, not shown: small tags and cut ends)
chain: B10 chain with L77V, R78G, P79Q, I81K, N85A
B13: ISOP193BR9P1E6 (designed binder, not shown: small tags and cut ends)
chain: LPAPKNLVVSRVTEDSARLSWGAITALFDSFLIQYQESEKVGEAIVLTVPGSERSYDLTGLKPGTEYTVSIYGVKFPYYYATADSNPLSAIFTT
B14: ISOP193BR9P1G11 (designed binder, not shown: small tags and cut ends)
chain: LPAPKNLVVSRVTEDSARLSWAGHYRKIRNFDSFLIQYQESEKVGEAIVLTVPGSERSYDLTGLKPGTEYTVSIYGVKFPYYYATADSNPLSAIFTT
B15: ISOP193BR9P1G2 (designed binder, not shown: small tags and cut ends)
chain: B14 chain with K78A, F79E, P80H, Y81W, A86Q
B16: ISOP193BR9P1G3 (designed binder, not shown: small tags and cut ends)
chain: LPAPKNLVVSRVTEDSARLSWAQSNQQFDSFLIQYQESEKVGEAIVLTVPGSERSYDLTGLKPGTEYTVSIYGVVWQNWVAYNSNPLSAIFTT
B17: ISOP193BR9P1G6 (designed binder, not shown: small tags and cut ends)
chain: LPAPKNLVVSRVTEDSARLSWDDQFEDWFDSFLIQYQESEQVGEAIVLTVPGSERSYDLTGLKPGTEYTVSIYGVHTRDWTAWNASNPLSAIFTT
B18: ISOP193BR9P1G9 (designed binder, not shown: small tags and cut ends)
chain: LPAPKNLVVSRVTEDSARLSWKQVTVAPEFDSFLIQYQESEKVGEAIVLTVPGSERSYDLTGLKPGTEYTVSIYGVKFPYYYATADSNPLSAIFTT
B19: ISOP193BR9P1H3 (designed binder, not shown: small tags and cut ends)
chain: LPAPKNLVVSRVTEDSARLSWNRLDSEWVAFDSFLIQYQESEKVGEAIVLTVPGSERSYDLTGLKPGTEYTVSIYGVVFRPWLAYNSNPLSAIFTT
B20: ISOP193ER9P1A10 (designed binder, not shown: small tags and cut ends)
chain: LPAPKNLVVSRVTEDSARLSWTAPDAAFDSFDIYYFEHPVGGEAIVLTVPGSERSYDLTGLKPGTEYLVTIYGVKGGHFSGPLSAIFTT
B21: ISOP193ER9P1B4 (designed binder, not shown: small tags and cut ends)
chain: B20 chain with R11H, H78Y, F79L, G81M
B22: ISOP193ER9P1D7 (designed binder, not shown: small tags and cut ends)
chain: B20 chain with F36G, P39W, V40K, G41L, H78M, F79S, G81N
B23: ISOP193ER9P1F9 (designed binder, not shown: small tags and cut ends)
chain: B20 chain with D32H, F36G, P39Y, V40N, G41L, H78F, F79W, G81T
B24: ISOP120FR5P1D7 (designed binder, not shown: small tags and cut ends)
chain: LPAPKNLVVSRVTEDSARLSWTAPDAAFDSFIIRYLEDISYGEAIVLTVPGSERSYDLTGLKPGTEYHVGIEGVKGGNVSWPLSAIFTT
B25: ISOP120FR5P1F8 (designed binder, not shown: small tags and cut ends)
chain: B24 chain
B26: ISOP193ER9P1G5 (designed binder, not shown: small tags and cut ends)
chain: B20 chain with H78Y, F79L, G81M

The binders below were run against T1, recombinant biotinylated CD137 protein (Fc-fusion protein, R&D Systems 838-4B) (human, UniProt Q07011 24-186, biotinylated, sites not stated) (assay: ELISA, lysate on biotinylated CD137-Fc).
T1 construct: Bought Fc fusion; also called CD137-Fc
Procedure: (§1) Streptavidin-coated Maxisorp plates (Nunc catalog 436110) were blocked for 1 h in Starting Block T20 (Pierce) and then coated with biotinylated CD137 (using same antigen as in panning) or negative controls (an unrelated Fc-fused recombinant protein and human serum albumin) for 1 h. Plates were rinsed with TBST and diluted lysate was applied to plates for 1 h. Following additional rinses, wells were treated with HRP-conjugated anti-Centyrin antibody (PAB25) for 1 h and then assayed with POD (Roche catalog 11582950001).

Point of comparison: B2, “ELISA CD137 (RLU)” value 6.74e+06 RLU. Against it:
- B1 — higher, 8.66e+06 RLU
- B3 — higher, 7.14e+06 RLU
- B4 — lower, 4.18e+06 RLU
- B5 — lower, 2.76e+06 RLU
- B6 — lower, 3.72e+06 RLU
- B7 — lower, 4.26e+06 RLU
- B8 — lower, 3.84e+06 RLU
- B9 — lower, 4.02e+06 RLU
- B10 — lower, 6.55e+06 RLU
- B11 — lower, 3.5e+06 RLU
- B12 — higher, 8.86e+06 RLU
- B13 — lower, 4.63e+06 RLU
- B14 — lower, 4.99e+06 RLU
- B15 — lower, 6.15e+06 RLU
- B16 — lower, 4.71e+06 RLU
- B17 — higher, 8.09e+06 RLU
- B18 — lower, 3.73e+06 RLU
- B19 — lower, 5.26e+06 RLU
- B20 — higher, 1.49e+07 RLU
- B21 — higher, 1.61e+07 RLU
- B22 — higher, 1.1e+07 RLU
- B23 — higher, 1.5e+07 RLU

These binders were tested against T2, human serum albumin (human, UniProt P02768 25-609) (assay: ELISA, negative control HSA).
T2 construct: Negative control of the ELISA; also called HSA
Procedure: as §1

T2 sequence (P02768 25-609 limits assumed): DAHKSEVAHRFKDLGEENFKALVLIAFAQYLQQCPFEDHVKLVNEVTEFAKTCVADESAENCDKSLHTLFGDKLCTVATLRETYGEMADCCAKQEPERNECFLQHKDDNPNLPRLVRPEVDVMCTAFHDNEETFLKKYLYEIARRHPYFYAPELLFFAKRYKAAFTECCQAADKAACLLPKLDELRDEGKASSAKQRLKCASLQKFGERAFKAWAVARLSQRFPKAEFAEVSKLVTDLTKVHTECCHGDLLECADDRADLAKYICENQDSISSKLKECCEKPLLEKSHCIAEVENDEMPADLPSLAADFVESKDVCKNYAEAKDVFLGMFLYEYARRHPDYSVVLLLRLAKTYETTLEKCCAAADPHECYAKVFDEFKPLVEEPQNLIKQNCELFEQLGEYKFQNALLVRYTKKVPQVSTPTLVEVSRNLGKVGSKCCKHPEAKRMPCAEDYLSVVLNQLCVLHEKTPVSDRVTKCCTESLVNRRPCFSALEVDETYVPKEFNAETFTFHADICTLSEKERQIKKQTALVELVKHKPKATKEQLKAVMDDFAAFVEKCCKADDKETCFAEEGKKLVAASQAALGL

Point of comparison: B2, “ELISA HSA (RLU)” value 480 RLU. Against it:
- B1 — lower, 320 RLU
- B3 — higher, 960 RLU
- B4 — higher, 720 RLU
- B5 — higher, 1440 RLU
- B6 — higher, 1040 RLU
- B7 — higher, 720 RLU
- B8 — higher, 720 RLU
- B9 — higher, 720 RLU
- B10 — higher, 2880 RLU
- B11 — higher, 3280 RLU
- B12 — higher, 2880 RLU
- B13 — higher, 560 RLU
- B14 — higher, 9600 RLU
- B15 — higher, 2160 RLU
- B16 — higher, 640 RLU
- B17 — higher, 960 RLU
- B18 — higher, 720 RLU
- B19 — higher, 1360 RLU
- B20 — lower, 240 RLU
- B21 — lower, 320 RLU
- B22 — lower, 400 RLU
- B23 — lower, 400 RLU

Each binder was assayed against unrelated Fc-fused recombinant protein (negative control) (assay: ELISA, bacterial lysate on plate-bound antigen, luminescence).

Point of comparison: B24, ELISA Fc Control (RLU) 400 RLU. Against it:
- B25 — lower, 240 RLU

These binders were tested against unrelated Fc-fused recombinant protein (assay: ELISA, negative control Fc protein).

Point of comparison: B1, ELISA Fc Control (RLU) 1440 RLU. Against it:
- B2 — lower, 960 RLU
- B3 — higher, 3520 RLU
- B4 — lower, 1200 RLU
- B5 — higher, 2240 RLU
- B6 — higher, 3040 RLU
- B7 — the same, 1440 RLU
- B8 — higher, 1520 RLU
- B9 — lower, 1120 RLU
- B10 — higher, 14000 RLU
- B11 — higher, 11800 RLU
- B12 — higher, 8320 RLU
- B13 — higher, 2560 RLU
- B14 — higher, 56900 RLU
- B15 — higher, 15900 RLU
- B16 — lower, 1360 RLU
- B17 — higher, 2640 RLU
- B18 — lower, 1200 RLU
- B19 — higher, 2080 RLU
- B20 — lower, 1120 RLU
- B21 — higher, 1600 RLU
- B22 — higher, 1680 RLU
- B23 — higher, 1840 RLU
- B26 — the same, 1440 RLU

From patent US20220259289A1 (Janssen / Centocor, published 2022)
